Data on one molecule can be found in patent US10792367B2, “Conjugates comprising an GLP-1/glucagon dual agonist, a linker and hyaluronic acid” (SANOFI, dated 2020).

In this experiment the target is human GLP-1 receptor (human, UniProt P43220). As to the kind of experiment: cell-based or functional assay.

Starred links: 1 amine or outer side, 2 acyl side, 3 side chain; linkers in the order of their positions; H or OH if unused. Non-standard residues stand in square brackets, D forms with d. Groups on a side chain read outwards from the residue. No end group written: not given here. *: point of attachment. γGlu = O=C(O)[C@H](CCC(=O)[*:2])N[*:1]; Stearoyl = CCCCCCCCCCCCCCCCCC(=O)*

B1: peptide of SEQ ID NO: 6 (GLP-1/Glucagon agonist, exendin-4 derivative) (peptide)
peptide: H[dS]QGTFTSDLSKQK([γGlu-Stearoyl])DEQLAKDFIEWLKAGGPSSGAPPPS-NH2
For B1, the “EC50 hGLP-1R (cAMP response, HTRF)” value was 5.1 pM.
